From IntAct's records for PubMed 29892012

B1: Ribosome assembly protein METTL17, mitochondrial (Homo sapiens), Q9H7H0 (parent)
chain: MAAALKCLLTLGRWCPGLGVAPQARALAALVPGVTQVDNKSGFLQKRPHRQHPGILKLPHVRLPQALANGAQLLLLGSAGPTMENQVQTLTSYLWSRHLPVEPEELQRRARHLEKKFLENPDLSQTEEKLRGAVLHALRKTTYHWQELSYTEGLSLVYMAARLDGGFAAVSRAFHEIRARNPAFQPQTLMDFGSGTGSVTWAAHSIWGQSLREYMCVDRSAAMLVLAEKLLKGGSESGEPYIPGVFFRQFLPVSPKVQFDVVVSAFSLSELPSKADRTEVVQTLWRKTGHFLVLVENGTKAGHSLLMDARDLVLKGKEKSPLDPRPGFVFAPCPHELPCPQLTNLACSFSQAYHPIPFSWNKKPKEEKFSMVILARGSPEEAHRWPRITQPVLKRPRHVHCHLCCPDGHMQHAVLTARRHGRDLYRCARVSSWGDLLPVLTPSAFPPSTAQDPSES
partner: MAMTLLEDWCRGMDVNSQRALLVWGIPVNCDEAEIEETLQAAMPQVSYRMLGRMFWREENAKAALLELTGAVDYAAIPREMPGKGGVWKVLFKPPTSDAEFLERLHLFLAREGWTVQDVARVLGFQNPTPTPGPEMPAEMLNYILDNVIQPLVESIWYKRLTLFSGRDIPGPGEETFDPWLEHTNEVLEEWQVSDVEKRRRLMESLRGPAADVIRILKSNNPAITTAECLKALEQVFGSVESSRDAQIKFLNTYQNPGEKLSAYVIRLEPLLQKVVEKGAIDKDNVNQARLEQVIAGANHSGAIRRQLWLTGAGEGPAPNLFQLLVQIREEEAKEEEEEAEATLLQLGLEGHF
B2: Ligand of Numb protein X 2 (Homo sapiens), Q8N448 (parent)
chain: MGTTSDEMVSVEQTSSSSLNPLCFECGQQHWTRENHLYNYQNEVDDDLVCHICLQPLLQPLDTPCGHTFCYKCLRNFLQEKDFCPLDRKRLHFKLCKKSSILVHKLLDKLLVLCPFSSVCKDVMQRCDLEAHLKNRCPGASHRRVALERRKTSRTQAEIENENGPTLLDPAGTLSPEADCLGTGAVPVERHLTSASLSTWSEEPGLDNPAFEESAGADTTQQPLSLPEGEITTIEIHRSNPYIQLGISIVGGNETPLINIVIQEVYRDGVIARDGRLLAGDQILQVNNYNISNVSHNYARAVLSQPCNTLHLTVLRERRFGNRAHNHSDSNSPREEIFQVALHKRDSGEQLGIKLVRRTDEPGVFILDLLEGGLAAQDGRLSSNDRVLAINGHDLKYGTPELAAQIIQASGERVNLTIARPGKPQPGNTIREAGNHSSSSQHHTPPPYYSRPSSHKDLTQCVTCQEKHITVKKEPHESLGMTVAGGRGSKSGELPIFVTSVPPHGCLARDGRIKRGDVLLNINGIDLTNLSHSEAVAMLKASAASPAVALKALEVQIVEEATQNAEEQPSTFSENEYDASWSPSWVMWLGLPSTLHSCHDIVLRRSYLGSWGFSIVGGYEENHTNQPFFIKTIVLGTPAYYDGRLKCGDMIVAVNGLSTVGMSHSALVPMLKEQRNKVTLTVICWPGSLV
partner: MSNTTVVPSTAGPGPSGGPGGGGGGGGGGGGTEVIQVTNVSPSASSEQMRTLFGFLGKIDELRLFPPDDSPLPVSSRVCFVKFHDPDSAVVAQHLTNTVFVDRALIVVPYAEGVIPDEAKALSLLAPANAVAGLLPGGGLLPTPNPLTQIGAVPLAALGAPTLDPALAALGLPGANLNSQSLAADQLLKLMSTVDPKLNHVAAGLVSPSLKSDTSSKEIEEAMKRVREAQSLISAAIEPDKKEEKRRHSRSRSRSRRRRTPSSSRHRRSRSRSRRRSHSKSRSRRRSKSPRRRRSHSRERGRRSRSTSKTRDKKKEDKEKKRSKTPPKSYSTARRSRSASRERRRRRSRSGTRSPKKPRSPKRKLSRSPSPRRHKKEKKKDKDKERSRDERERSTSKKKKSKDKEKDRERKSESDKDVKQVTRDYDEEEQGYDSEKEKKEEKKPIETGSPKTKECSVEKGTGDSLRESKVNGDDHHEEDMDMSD
B3: E3 ubiquitin-protein ligase RNF31 (Homo sapiens), Q96EP0 (parent)
chain: MPGEEEERAFLVAREELASALRRDSGQAFSLEQLRPLLASSLPLAARYLQLDAARLVRCNAHGEPRNYLNTLSTALNILEKYGRNLLSPQRPRYWRGVKFNNPVFRSTVDAVQGGRDVLRLYGYTEEQPDGLSFPEGQEEPDEHQVATVTLEVLLLRTELSLLLQNTHPRQQALEQLLEDKVEDDMLQLSEFDPLLREIAPGPLTTPSVPGSTPGPCFLCGSAPGTLHCPSCKQALCPACDHLFHGHPSRAHHLRQTLPGVLQGTHLSPSLPASAQPRPQSTSLLALGDSSLSSPNPASAHLPWHCAACAMLNEPWAVLCVACDRPRGCKGLGLGTEGPQGTGGLEPDLARGRWACQSCTFENEAAAVLCSICERPRLAQPPSLVVDSRDAGICLQPLQQGDALLASAQSQVWYCIHCTFCNSSPGWVCVMCNRTSSPIPAQHAPRPYASSLEKGPPKPGPPRRLSAPLPSSCGDPEKQRQDKMREEGLQLVSMIREGEAAGACPEEIFSALQYSGTEVPLQWLRSELPYVLEMVAELAGQQDPGLGAFSCQEARRAWLDRHGNLDEAVEECVRTRRRKVQELQSLGFGPEEGSLQALFQHGGDVSRALTELQRQRLEPFRQRLWDSGPEPTPSWDGPDKQSLVRRLLAVYALPSWGRAELALSLLQETPRNYELGDVVEAVRHSQDRAFLRRLLAQECAVCGWALPHNRMQALTSCECTICPDCFRQHFTIALKEKHITDMVCPACGRPDLTDDTQLLSYFSTLDIQLRESLEPDAYALFHKKLTEGVLMRDPKFLWCAQCSFGFIYEREQLEATCPQCHQTFCVRCKRQWEEQHRGRSCEDFQNWKRMNDPEYQAQGLAMYLQENGIDCPKCKFSYALARGGCMHFHCTQCRHQFCSGCYNAFYAKNKCPEPNCRVKKSLHGHHPRDCLFYLRDWTALRLQKLLQDNNVMFNTEPPAGARAVPGGGCRVIEQKEVPNGLRDEACGKETPAGYAGLCQAHYKEYLVSLINAHSLDPATLYEVEELETATERYLHVRPQPLAGEDPPAYQARLLQKLTEEVPLGQSIPRRRK
B4: Casein kinase II subunit alpha (Homo sapiens), P68400 (parent)
chain: MSGPVPSRARVYTDVNTHRPREYWDYESHVVEWGNQDDYQLVRKLGRGKYSEVFEAINITNNEKVVVKILKPVKKKKIKREIKILENLRGGPNIITLADIVKDPVSRTPALVFEHVNNTDFKQLYQTLTDYDIRFYMYEILKALDYCHSMGIMHRDVKPHNVMIDHEHRKLRLIDWGLAEFYHPGQEYNVRVASRYFKGPELLVDYQMYDYSLDMWSLGCMLASMIFRKEPFFHGHDNYDQLVRIAKVLGTEDLYDYIDKYNIELDPRFNDILGRHSRKRWERFVHSENQHLVSPEALDFLDKLLRYDHQSRLTAREAMEHPYFYTVVKDQARMGSSSMPGGSTPVSSANMMSGISSVPTPSPLGPLAGSPVIAAANPLGMPVPAAAGAQQ
partner: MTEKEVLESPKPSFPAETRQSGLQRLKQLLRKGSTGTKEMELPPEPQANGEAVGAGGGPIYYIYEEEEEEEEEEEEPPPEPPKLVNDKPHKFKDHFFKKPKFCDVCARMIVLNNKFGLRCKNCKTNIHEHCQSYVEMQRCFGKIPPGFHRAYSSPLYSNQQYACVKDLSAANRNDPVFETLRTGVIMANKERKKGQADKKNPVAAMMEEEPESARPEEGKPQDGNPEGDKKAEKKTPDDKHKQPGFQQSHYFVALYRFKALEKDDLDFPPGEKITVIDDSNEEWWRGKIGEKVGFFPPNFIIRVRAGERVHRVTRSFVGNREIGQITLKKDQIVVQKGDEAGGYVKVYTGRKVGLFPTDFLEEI
B5: Ribosome assembly protein METTL17, mitochondrial (Homo sapiens), Q9H7H0 (parent)
chain: B1 chain
partner: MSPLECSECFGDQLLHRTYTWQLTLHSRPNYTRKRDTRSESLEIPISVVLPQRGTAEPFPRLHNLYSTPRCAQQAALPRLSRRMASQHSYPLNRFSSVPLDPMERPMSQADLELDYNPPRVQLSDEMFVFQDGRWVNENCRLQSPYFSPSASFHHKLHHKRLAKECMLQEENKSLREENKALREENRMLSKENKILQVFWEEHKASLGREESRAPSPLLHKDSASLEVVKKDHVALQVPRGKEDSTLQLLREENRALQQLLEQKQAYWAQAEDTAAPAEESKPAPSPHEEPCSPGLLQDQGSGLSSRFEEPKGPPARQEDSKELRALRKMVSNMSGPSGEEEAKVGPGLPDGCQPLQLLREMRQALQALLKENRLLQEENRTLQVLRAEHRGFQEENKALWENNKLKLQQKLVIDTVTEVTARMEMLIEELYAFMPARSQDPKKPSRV
B6: Keratin, type I cuticular Ha8 (Homo sapiens), O76015 (parent)
chain: MTSSYSSSSCPLGCTMAPGARNVSVSPIDIGCQPGAEANIAPMCLLANVAHANRVRVGSTPLGRPSLCLPPTCHTACPLPGTCHIPGNIGICGAYGENTLNGHEKETMQFLNDRLANYLEKVRQLEQENAELEATLLERSKCHESTVCPDYQSYFHTIEELQQKILCSKAENARLIVQIDNAKLAADDFRIKLESERSLRQLVEADKCGTQKLLDDATLAKADLEAQQESLKEEQLSLKSNHEQEVKILRSQLGEKLRIELDIEPTIDLNRVLGEMRAQYEAMLETNRQDVEQWFQAQSEGISLQDMSCSEELQCCQSEILELRCTVNALEVERQAQHTLKDCLQNSLCEAEDRFGTELAQMQSLISNVEEQLSEIRADLERQNQEYQVLLDVKTRLENEIATYRNLLESEDCKLPCNPCSTSPSCVTAPCAPRPSCGPCTTCGPTCGASTTGSRF
partner: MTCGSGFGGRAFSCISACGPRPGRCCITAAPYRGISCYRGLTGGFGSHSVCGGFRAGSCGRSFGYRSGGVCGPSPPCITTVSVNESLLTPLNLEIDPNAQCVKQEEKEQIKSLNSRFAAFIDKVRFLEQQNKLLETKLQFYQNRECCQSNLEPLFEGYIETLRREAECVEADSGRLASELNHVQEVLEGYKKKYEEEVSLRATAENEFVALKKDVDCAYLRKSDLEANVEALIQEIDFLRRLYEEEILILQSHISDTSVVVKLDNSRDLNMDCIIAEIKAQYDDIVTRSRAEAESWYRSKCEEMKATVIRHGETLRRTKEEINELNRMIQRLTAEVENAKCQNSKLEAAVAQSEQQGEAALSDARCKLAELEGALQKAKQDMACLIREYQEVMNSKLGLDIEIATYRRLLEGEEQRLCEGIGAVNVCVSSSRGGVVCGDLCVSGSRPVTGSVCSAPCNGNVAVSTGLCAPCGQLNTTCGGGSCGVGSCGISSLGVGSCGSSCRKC
B7: Keratin, type I cuticular Ha8 (Homo sapiens), O76015 (parent)
chain: B6 chain
partner: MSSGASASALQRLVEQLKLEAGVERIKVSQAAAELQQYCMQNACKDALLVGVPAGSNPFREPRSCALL
B8: Casein kinase II subunit alpha (Homo sapiens), P68400 (parent)
chain: B4 chain
B9: Kinetochore protein NDC80 homolog (Homo sapiens), O14777 (parent)
chain: MKRSSVSSGGAGRLSMQELRSQDVNKQGLYTPQTKEKPTFGKLSINKPTSERKVSLFGKRTSGHGSRNSQLGIFSSSEKIKDPRPLNDKAFIQQCIRQLCEFLTENGYAHNVSMKSLQAPSVKDFLKIFTFLYGFLCPSYELPDTKFEEEVPRIFKDLGYPFALSKSSMYTVGAPHTWPHIVAALVWLIDCIKIHTAMKESSPLFDDGQPWGEETEDGIMHNKLFLDYTIKCYESFMSGADSFDEMNAELQSKLKDLFNVDAFKLESLEAKNRALNEQIARLEQEREKEPNRLESLRKLKASLQGDVQKYQAYMSNLESHSAILDQKLNGLNEEIARVELECETIKQENTRLQNIIDNQKYSVADIERINHERNELQQTINKLTKDLEAEQQKLWNEELKYARGKEAIETQLAEYHKLARKLKLIPKGAENSKGYDFEIKFNPEAGANCLVKYRAQVYVPLKELLNETEEEINKALNKKMGLEDTLEQLNAMITESKRSVRTLKEEVQKLDDLYQQKIKEAEEEDEKCASELESLEKHKHLLESTVNQGLSEAMNELDAVQREYQLVVQTTTEERRKVGNNLQRLLEMVATHVGSVEKHLEEQIAKVDREYEECMSEDLSENIKEIRDKYEKKATLIKSSEE
partner: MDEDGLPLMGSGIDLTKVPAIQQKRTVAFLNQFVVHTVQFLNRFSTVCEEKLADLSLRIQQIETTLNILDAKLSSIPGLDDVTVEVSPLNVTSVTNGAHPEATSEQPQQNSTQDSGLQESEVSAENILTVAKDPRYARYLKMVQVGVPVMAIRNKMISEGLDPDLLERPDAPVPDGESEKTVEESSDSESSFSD

Variants of: B1
Conditions: with pnma1_human PNMA1, Q8ND90

Row | effect of a mutation on the interaction | Variant
1 | with no effect | R212H

Variants of: B2
Conditions: with srs11_human SRSF11, Q05519

Row | effect of a mutation on the interaction | Variant
2 | with no effect | P669A

Variants of: B3
Conditions: with hoil1_human RBCK1, Q9BYM8
hoil1_human RBCK1, Q9BYM8, sequence (Q9BYM8 whole entry): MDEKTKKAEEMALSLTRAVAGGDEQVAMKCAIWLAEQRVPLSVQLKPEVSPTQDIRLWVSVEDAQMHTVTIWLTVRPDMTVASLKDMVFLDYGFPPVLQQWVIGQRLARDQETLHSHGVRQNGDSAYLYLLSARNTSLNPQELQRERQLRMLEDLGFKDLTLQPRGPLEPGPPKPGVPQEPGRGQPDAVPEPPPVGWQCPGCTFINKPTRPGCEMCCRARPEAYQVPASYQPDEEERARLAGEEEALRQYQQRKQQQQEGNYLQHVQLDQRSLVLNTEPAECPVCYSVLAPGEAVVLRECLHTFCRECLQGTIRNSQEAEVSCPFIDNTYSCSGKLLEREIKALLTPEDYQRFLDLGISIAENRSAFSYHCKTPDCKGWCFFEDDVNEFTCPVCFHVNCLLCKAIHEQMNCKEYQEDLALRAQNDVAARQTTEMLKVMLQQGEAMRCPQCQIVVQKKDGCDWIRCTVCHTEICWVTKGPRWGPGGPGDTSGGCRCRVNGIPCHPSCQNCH

Row | effect of a mutation on the interaction | Variant
3 | with no effect | R646W

Variants of: B3
Conditions: with ccd24_human CCDC24, Q8N4L8
ccd24_human CCDC24, Q8N4L8, sequence (Q8N4L8 whole entry): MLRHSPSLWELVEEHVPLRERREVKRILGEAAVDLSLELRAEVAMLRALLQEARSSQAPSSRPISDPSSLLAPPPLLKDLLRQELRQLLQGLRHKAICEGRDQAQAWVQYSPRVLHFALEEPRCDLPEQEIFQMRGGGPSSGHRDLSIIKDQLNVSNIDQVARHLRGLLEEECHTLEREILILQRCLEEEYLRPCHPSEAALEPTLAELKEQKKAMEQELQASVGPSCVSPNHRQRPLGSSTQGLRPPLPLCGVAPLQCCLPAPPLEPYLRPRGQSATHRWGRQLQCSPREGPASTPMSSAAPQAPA

Row | effect of a mutation on the interaction | Variant
4 | with no effect | R646W

Variants of: B4
Conditions: with stac3_human STAC3, Q96MF2

Row | effect of a mutation on the interaction | Variant
5 | with no effect | K198R

Variants of: B5
Conditions: with cby2_human CBY2, Q8NA61

Row | effect of a mutation on the interaction | Variant
6 | with no effect | R212H

Variants of: B6
Conditions: with krt81_human KRT81, Q14533

Row | effect of a mutation on the interaction | Variant
7 | with no effect | D306A

Variants of: B6
Conditions: with krt81_human KRT81, Q14533
Remark: another data set of the same source

Row | effect of a mutation on the interaction | Variant
8 | with no effect | N270K

Variants of: B7
Conditions: with gbg10_human GNG10, P50151

Row | effect of a mutation on the interaction | Variant
9 | with no effect | D306A

Variants of: B7
Conditions: with gbg10_human GNG10, P50151
Remark: another data set of the same source

Row | effect of a mutation on the interaction | Variant
10 | with no effect | N270K

Variants of: B8
Conditions: with nfya_human NFYA

Row | effect of a mutation on the interaction | Variant
11 | with no effect | K198R

Variants of: B9
Conditions: with wasc3_human WASHC3, Q9Y3C0

Row | effect of a mutation on the interaction | Variant
12 | with no effect | K288E
